From patent publication US20160159862A1 (PROTAGONIST THERAPEUTICS, published 2016)
Bridge positions count the residues as written; N and C are the ends. Square brackets hold non-standard residues; d marks the D form. Primed or numbered codes have the meaning given here. Ends that are not written are not given here. PEG13′ = Bifunctional PEG linker with 13 polyethylene glycol units; PEG25′ = Bifunctional PEG linker with 25 polyethylene glycol units; Phe(4-CF3) = N[C@@H](Cc1ccc(C(F)(F)F)cc1)C(=O)O; Bip = N[C@@H](Cc1ccc(-c2ccccc2)cc1)C(=O)O; Phe(4-CN) = N#Cc1ccc(C[C@H](N)C(=O)O)cc1; 1Nal = N[C@@H](Cc1cccc2ccccc12)C(=O)O; 2Nal = N[C@@H](Cc1ccc2ccccc2c1)C(=O)O; NMeR = CN[C@@H](CCCNC(=N)N)C(=O)O; Tic = O=C(O)[C@@H]1Cc2ccccc2CN1; β3hE = N[C@@H](CCC(=O)O)CC(=O)O; NMeK = CN[C@@H](CCCCN)C(=O)O; Pen = CC(C)(S)[C@H](N)C(=O)O; hLeu = CC(C)CC[C@H](N)C(=O)O

Target: α4β7 integrin on human cells (human, UniProt P13612 34-1032; P26010 20-798)
Test: cell-based or functional assay

Binder	α4β7 cell (Hu) IC50 [nM]
XRSDTLXW (Ac-Pen-(N-Me-R)-S-D-T-L-Pen-W-OH; disulfide) [SEQ ID NO 127]	> 100
Ac-[Pen][NMeR]SD[hLeu]L[Pen][2Nal][dE]-NH2 (disulfide 1-7 (inferred)) [SEQ ID NO 161]	> 1000
Ac-[Pen][NMeR]SDTL[Pen][2Nal][dH][dK]-NH2 (disulfide 1-7 (inferred); also: homodimer via DIG) [SEQ ID NO 118]	> 25
[PEG13′]C[NMeR]SDTL[Pen]W-NH2 (disulfide 2-8 (inferred)) [SEQ ID NO 20]	> 50
Ac-[Pen][NMeR]SDTL[Pen][Bip]E[NMeK]-NH2 (disulfide 1-7 (inferred); also: homodimer via DIG) [SEQ ID NO 136]	≤ 10
Ac-[Pen][NMeR]SDTL[Pen][2Nal][dY][dK]-NH2 (disulfide 1-7 (inferred); also: homodimer via DIG) [SEQ ID NO 27]	> 25
Ac-[Pen][NMeR]SDTL[Pen][Bip][β3hE][dK]-NH2 (disulfide 1-7 (inferred); also: homodimer via DIG) [SEQ ID NO 135]	≤ 10
Ac-[Pen][NMeR]SDTL[Pen]Y[dE][dK]-NH2 (disulfide 1-7 (inferred); also: homodimer via DIG) [SEQ ID NO 123]	> 50
Ac-[Pen][NMeR]SDVL[Pen][2Nal][dE]-NH2 (disulfide 1-7 (inferred)) [SEQ ID NO 156]	> 100
Ac-[Pen][NMeR]SDLL[Pen][2Nal][dE]-NH2 (disulfide 1-7 (inferred)) [SEQ ID NO 159]	> 1000
Ac-[Pen][NMeR]SDTL[Pen][2Nal][dF][dK]-NH2 (disulfide 1-7 (inferred); also: homodimer via DIG) [SEQ ID NO 117]	> 100
Ac-[Pen][NMeR]SDTL[Pen][2Nal][Tic][dK]-NH2 (disulfide 1-7 (inferred); also: homodimer via DIG) [SEQ ID NO 121]	> 100
Ac-[Pen][NMeR]SDTL[Pen][1Nal][dT][dK]-NH2 (disulfide 1-7 (inferred); also: homodimer via DIG) [SEQ ID NO 116]	> 50
Ac-[Pen][NMeR]SDIL[Pen][2Nal][dE]-NH2 (disulfide 1-7 (inferred)) [SEQ ID NO 160]	> 1000
Ac-[Pen][NMeR]SDTL[Pen]WE-OH (disulfide 1-7 (inferred)) [SEQ ID NO 128]	> 50
Ac-XRSDXLXXE-NH2 (disulfide 1-7 (inferred); not fully specified (residues 1, 2, 5, 7, 8, 9); printed as Ac-Pen-(N-Me-R)-S-D-Cha-L-Pen-(2-Nal)-e-NH2, disulfide) [SEQ ID NO 158]	> 1000
Ac-[Pen][NMeR]SDTL[Pen]W[BetaE][dK]-NH2 (disulfide 1-7 (inferred); also: dimer via DIG) [SEQ ID NO 1]	> 50
Ac-[Pen][NMeR]SDTL[Pen]HE[dK]-NH2 (disulfide 1-7 (inferred); also: homodimer via DIG) [SEQ ID NO 25]	> 10
Ac-[Pen][NMeR]SDTY[Pen][2Nal][dE]-NH2 (disulfide 1-7 (inferred)) [SEQ ID NO 164]	> 1000
[PEG25′]C[NMeR]SDTL[Pen]W-NH2 (disulfide 2-8 (inferred)) [SEQ ID NO 21]	> 50

More lines, now with the values ahead:

α4β7 cell (Hu) IC50 [nM]	Binder
> 50	Ac-[Pen][NMeR]SDTL[Pen][Phe(4-CF3)][dE][dK]-NH2 (disulfide 1-7 (inferred); also: homodimer via DIG) [SEQ ID NO 122]
> 100	Ac-[Pen][NMeR]SDTL[Pen][1Nal][Tic][dK]-NH2 (disulfide 1-7 (inferred); also: homodimer via DIG) [SEQ ID NO 115]
≤ 10	Ac-[Pen][NMeR]SDTL[Pen][Phe(4-CN)][β3hE][dK]-NH2 (disulfide 1-7 (inferred); also: homodimer via DIG) [SEQ ID NO 139]
> 1000	Ac-[Pen][NMeR]SDFL[Pen][2Nal][dE]-NH2 (disulfide 1-7 (inferred)) [SEQ ID NO 157]
> 100	Ac-[Pen][NMeR]SDTL[Pen]HY[dK]-NH2 (disulfide 1-7 (inferred); also: homodimer via DIG) [SEQ ID NO 26]
> 500	Ac-[Pen][NMeR]SDTL[Pen][2Nal][dL][dK]-NH2 (disulfide 1-7 (inferred); also: homodimer via DIG) [SEQ ID NO 119]
> 10	Ac-[Pen][NMeR]SDTL[Pen][2Nal][dT][dK]-NH2 (disulfide 1-7 (inferred); also: homodimer via DIG) [SEQ ID NO 140]
> 1000	Ac-[Pen][NMeR]SDTF[Pen][2Nal][dE]-NH2 (disulfide 1-7 (inferred)) [SEQ ID NO 162]
> 1000	Ac-[Pen][NMeR]SDTQ[Pen][2Nal][dE]-NH2 (disulfide 1-7 (inferred)) [SEQ ID NO 163]
> 1000	Ac-[Pen][NMeR]SDTL[Pen][2Nal][dR][dK]-NH2 (disulfide 1-7 (inferred); also: homodimer via DIG) [SEQ ID NO 120]
> 100	Ac-[Pen][NMeR]SDTL[Pen]H[dE][dK]-NH2 (disulfide 1-7 (inferred); also: homodimer via DIG) [SEQ ID NO 124]
